Protein production data for 16 sequences are collected here from a protein production outcome set (Wang et al. 2014).

This series is described as follows: label from the status in PepcDB records.

For the sequence “MRRRVAYARDYGDHIMGKFKFPTAYTILFVLIALVAAMTWIVPAGKYQMVTNAALGKEVPVAGTYAPVEAQPQGITAVLLAPIDGLYNHQTYTAGAIDVALFVLIIGGFLGVVNKTGAIDAGIERVTTRLNGREEWMIPILMALFAAGGTIYGMAEESLPFYTLLVPVMMAARFDPLVAAATVLLGSGIGTLGSTINPFATVIAANAAGIPFTQGILLRVILLLVGYVICVYWVMRYARKVRNSPESSIVADKMAENQAHFLGNRSETMLEFTPTRKAILILFAASFAFMIYGVAVLGWWMAEISAVFLAAAVIVGVIARMGEETFTSTFIDGARDLLGVALIIGIARGIVVVMDNGMITHTILHSAENLVSGLSTTVFINVTYWLEVLLSFLVPSSSGLAVLTMPIMAPLADFAHVQRDLVVTAYQSASGVVNLITPTSAVVMGGLAIARVPWVRYLRWVAPLLLILTMLNMIVLSIAAMI”, the protein production entry is recorded as “failed”.
As for “MRRSDLHGTSIEIERKNVGERRYITGFDGLRVMALLGVIFYHLMPFTVPGGYLGVPIFFAVSGYLITDIFIQEWDRTGKIKLGSFYIRRLRRLYPTLVMVLVTSTAYMTLFAQNLLSHIRNIIWTNLVFVYNWWLVNNGQSYFDRYNGESPFTHLWYLSVLAQYYFIWPLILIVLLKIFGERRVQASGILFSLSIISSMLMTILYHPDTVNRVYYGSDTRVAPFLIGAALAFIWPSTRLKKALNARTNLIANILGGILILVMGITFFTMPGTTATPYYGGIFIFSILAVLMIAIIAHPSFMWNRLLTNPVFKWLGSRSYGIYMYQLPVMIFYEQKVTNIAAHPVLNTLAPLVIILVISELSYRYIEIPLAKFDYRQTFALLKKIFDLKSNLQWRRYLAIPAVLVVLIALFGAVTSPEKVVQKTDGLQTKLAKNSKEADKKNKEALEKQKETSAAKTKQKKAKLTKQEKEIAKKYQLTDQEMKFAAVTPLTGVGDSVLEDTGADLQEIFPTAYMSSKVGRQVDEAPGIIAELKRQKTLSDNVLINLGANGPISDKDVKAVEDAVGSKRHIFWVNVHVPTKTWEGSVNKTLDKATKQYKNLTVIDWFTPSKNQPGWFYGDYVHPNPDGSKQYATIVAKKIIKTLNK”, the entry is “failed”.
Then “MRRVVIRTEALSCPLDGDEDSNELRLRPLVPDAQEWKYPKSKLFPRHAAWSCHSGGGGGGGGGRVFTNKVNAVEEFNLGGLKDSESDSDSE”, with “failed”; and “MRSETVSTHTKPVRPEPPAPAAEVPAGAFPPGQERDHDTRPSAPPRDQSPPPAPEADSRSAARPAPPTHPGTSSTVWVRRRLARLGAQRGTTMNPVLEPLVKTVRATHPKADIRLIERAYDVAAHYHRSQKRKSGDPYITHPLAVATILAELGMQEATIAAGLLHDTVEDTEYTLDQLRSDFGDEIAELVDGVTKLDKVKYGEATQAETVRKMVVAMARDIRVLVIKLCDRLHNMRTLRYLPQAKREKKARETLEIYAPLAHRLGMNTIKWELEDLAFATLYPKRFDEIARLVAERAPRRDVYLQEVIEIVSADLREAKIKATVRGRPKHYYSIYQKMIARNVGFDEIYDLVGIRVIVDSVRDCYAALGIIHARWNPVPGRFKDYIAMPKFNMYQSLHTTVIGPEGSPVELQIRTRAMHRRAEYGIAAHWKYKEERNNGGKAKGASTDMAWLRQLIDWQQETKDPGEFLESLRFDLSVQEVFVFTPRGDVIALPQGATPVDFAYAVHTEVGHRTVGARVNGRLVPLDSELHNGETVEIITAKTDDAGPSRDWLDFVKSARARNKIRQWFTKERREAAIEQGKEAIAKVMRKQELPVQRLFTSESLIALAHDLRYRDLDALYAAVGENQISAHKVVEKLIESVGSLDNNEEDIAEATTPIRVPRKRPTGNPGVVVQGDPDVWVRLSKCCTPVPGDAIIGFVTRGAGVSVHRDDCGNVKHLDPDRLVQVEWQPTGNSMFLVALQIEALDRTRLLSDITRVLSDQHVNILSATVQTTRDRVALSRFTFEMADPAHLGHVLKAVRSVDGVYDVYRVRN”, with “failed”; and “MRSFILRARSAPTDSQRLLDEIGGKCHTEILAHCMMNSLFTAQSHREDVVIHLVLESTRDYSRTITVEANEISDVGGFHEAALIALLVKALDASVGMGKEQTRVVQPGLTVRTISFEALLGELAEHHSLYMMDKKGDSIRDIKIGPNPCFILTDHIPMPKKSGNSMKRLGVEKISLGPKMLFASQCVTLIHNEIDHQEA”, with “not failed”.
As for “MRSFLKRTQCAQLRSTPSLIFSTGITHPAETALQRFKFLMYQVVASDLDGTLLSPDHTLSPYAKEPLKLLTARGINFVFATGRHHVDVGQIRDNLEIKSYMITSNGARVHDLDGNLIFAHNLDRDIASDLFGVVNDNPDIITNVYRDDEWFMNRHRPEEMRFFKEAVFKYALYEPGLLEPEGVSKVFFTCDSHEQLLPLEQAINARWGDRVNVSFSTLTCLEVMAGGVSKGHALEAVAKKLGYSLKDCIAFGDGMNDAEMLSMAGKGCIMGSAHQRLKDLHPELEVIGTNADDAVPHYLRKLYLS”, the entry is “failed”; as for “MRSISTGRMIDDSSDSVKGSVVWVPAKSIWITTMTVVAVVGGPLTFSWSAVIVFVLSTAITICLGHSVGMHRLLIHRSFSAPLWLEHLLVYLGTLVGMAGPFGMIYAHDIRDWAQRQRDCHDLYAHRRSFFVDALWQMHCAVALDEPPRFVVEERARHDRFYRLLEATWMAQQIPLALLLFSLGGLPWLVWGIAVRISVSLTGHWLVGHFAHRNGHQGWSVDDVAVQGYNLPRFGLVTFGESFHGNHHAFPESARLGIEPGQLDLGWHFIRLLAGLGLASAIKLPHTIVPRDGLRRVEVSGDTGEDHPVGQR”, “failed”; as for “MRSPYLIGVFLAAGKSRRMGQNKLALPLKGENIGSLSLKTALSSRLDHVLVVERTEHASLEWIGAPYHAPPFQKRWSLHVCQDAEKGQGHSVSSGVRKAESMGADGIVILLADQPQLSVDHLNALVALAPESFAVSSFLGAFTPPIYFSSTCFPYVKGLKGDEGARRLLKSGQLGAGAVLEAKDSGELDDIDTPRGILEHHHHHH”, “not failed”.
On to “MRSRDFSSWIWGDALSLLQQADRLHRQLLRTGPAQAPCWEPPVDMIETESAVLIYVALPGVAAGDVAVRFDPDGISISGVRPLPALRNARIHGLEIPYGRFQRRIRLPLHALEPEAPTLADGCLTLTLKKLREAP”, for which the protein production result is “failed”.
As for “MRSRPTEGNLLVSIGIPFLNPGPYLDLAVRSVFAQTYLNWELILVDDGSTDGSYERAVAIQDPRVRVLRDGQNKGLPARLNEIVRLAKGELVARMDADDAMHPLRLEKQVGFLQANPELDGVTTGAYLIDAEDRPIALLPGRQPSAQEVLARGGFLHPSLLARKSWFEAHPYSLDYPRAEDRELFVRTFKTSRLHVLSEPLYFYRWFGVPRGKTLRIGYRSERKVMWKYGPNLVGWGPSLRLIALSFGKELLTWFLEWTHLEKGFQTRRAFQPLLEMDQREALRTLKVIRETCVPGWDLEHHHHHH”, the protein production entry is “failed”.
Regarding “MRSVTVSGFLTLIISGIMLIPSPAYSKIDTTLNTSSFIGAYLAGRVANHENKTDLAIKYFKKALTYKPENIETQVEMLEAMLFSGAFKEAVKQAQKLKKQGITNPFVSLTLSIESLIKKDYNKAKILLQLKTLPAANNPIPELIGAWATFGSGYQSQAITHLQKIQGPAWYKLFINYHLALMCDLAGHKQNAQKYFTQALNTQQATLIAPNTYEHIIIAYASFQLRSKMRIQALQTLKHGEQMLPGREIFKNIREKIEKGASLERLIKTPQQGTGEVLYNFGTTLNHKNSQRIARIFTQLSLILSPENDAIMFHLANISAKVNDLNQAIKLYRSLPQSSPYYRVGQLQLAFILANNNNHSEAIKLLTSLKKKNPNDRHILITLSALYMQDNKFTEATKTLDRAIAQITNFQQDDWKLFYQRGIAFERLQQWSKAENDLRKALDFFPNQPQVLNYLGYSLVERGEKLEESLHMLQKASTLQPQNSHILDSLGWAYYKLKQYNQAVQILGNAVRLQPEDPTLNDHLGDVYWRVGRKREAMFQWNHAIDGEAKNSKEIQEKLKFGLQ”, the protein production entry was “failed”.
Then “MRSVVSFNEGWSFHEGFGQRLLETFDTAKSVSLPHTAVELPFSYFDETSYQRAFTYQKVLRWLPEFEGREVSLVFDAAMADSVVYLNGEEIIAHKDGYTPFEARLTGKLVKGENLVTVKIDGSENPDIPPFGGRIDYLTYAGIYRDVWLKVTDPVSIRNLKIETTDVLRPEKSATIRVDIANPEGRSFSATVTATLKQADGTVVATAATETIGSRTTLSFGGLTGIALWDITDPKLYDVTVELRTEHGSDRISTRFGFRTAEFTPEGFLLNGKPLKLRGLNRHQAFPYVGYAAGRSAQERDADIMKTVLKCNIVRTSHYPQSKWFLDRCDAIGLLVFEEIPGWQHIGDADWQQESIKNVRRMIERDWNHPSIIIWGVRINESQDDHDFYAETNRLARELDSTRQTGGVRYLTESELLEDVYTMNDFILGNEELPGANRPRTALRAQQENTGLSHKVPYLITEFNGHMHPTKIYDQEQRQAEHVRRHLEVLNAAYGDPDISGAIGWCMFDYNTHKDFGSGDRICYHGVMDMFREPKFAAYAYISQCDPSEEIVMKPVTFWARGERNIGGVLPLIILTNCDEVELQYGALSKRIGPDRENYPHLPHPPVVLDHRHFTADELGTWGLEWIDGTFTGYIGGEPVASLTLAADPLPTTLEVVADSSTLRARERDSTRVIIRALDQRGQRLPFMNDSISLKVHGPARIVGPTNVPLQGGTAGFWLEATGFTGEITVEAISTRFAPVTLGVTAA”, with “failed”; and “MRTALLEVGLEELPASEFHSILKQLEEKSAELLKAYRVSSGSVEVFVGSRRFGVILKNLPERQEDFTEEKKGPPLNVAYDENGKPTRALEGFLRNNNASLENVVHREGYVYLSRVVEGKPVEEVLPDLFRDLVLGLNFRKPMRWGSGEHEYIRPVHWIVAMVDGRVLDLEIFGLRSSRISYGKRYHAGSIEIPDSERYYESLKKGFVISSHLERKKFVLEQIDEFEKRSSMKIERDEELIEEIVAITEYPRIVVGQFDRKYLELPEEIIVTAVKHHQRSFIAHKGTLTNTFVAFQDGPQPPENVVKGYERVINARLEDARYYFQKDLETPLEKMNEKLKEIVFQEKLGTLYDKVERIKKISQRLCEDLKLPGSFTQKVLEAASICKADIASKVVYEFPELQGVMGRIYALREGINEEIATAIEDHYSEEPQTVIGSILGIADRIDTIVGNFAIGNVPTSSKDPYGLKSKADTIFRIIRKNEWDISLEELLTFASSLVGYRLSEELETFFAGRFYQFLINELGISFDVARAVNHLWKKPLR”, with “failed”.
In the case of “MRTALLQNLFSLFPFDLHGDCDVPPARDGIRVSCIINFYGRLNVLAGILWSLAQQDFPRSAFEVILVEDRGGSDEGRALAEEFSSRLPIVYAPLDKQYGLMGYSRNFGLERSRGEFILFLDDDTIILQDDFLKTMVAYFDAQPGVSAIMPHGEASFAFVDDRYDFHDPFFMTSRCTAYRRTVLASLGGFMSSFIGQEDVEFVIRFHAAGNRCAAVPQLAYRHPPLYVTNLGKPMAVGSSFYGIRKRYPLVTWLLAVVNCSRHLPLVLAPSRKYREMGRFGLGFLWGVLTAPFRSGSLNYRLEHHHHHH”, the protein production entry is “failed”.
As to “MRTAVIIPFYQREAGILSRALDSVDGQILPEGHSLTVFVIDDESPVSARSEVEGRQGKVPVRLIAQKNGGPGAARNAGLDAVAAEGFDHVAFLDSDDIWQPTHLADALDLLARGYDFHFCDHQRTDDDITYFERTPALRRMREERHAGVTVLDAEAPILAFDQPSIMAASVDTYLSQTSTVVVRQSFVETLRFDPRLRNAGEDQLFWLSLIAAGARTVVSWKMNVLCGRGVNVYFDAFDWKSTKVVDRTGYMLMFFHTVGRRLSLTASDRRTVADRIRRYRRAYSYLFLRALLQGRVPTLSLTWKLAALDPGLVPAMPLRFLAVLPNREAESLQWLEHHHHHH”, the protein production entry was “failed”.
“MRTDNINHWDVVAETYSEENNRGRNFHSQIYLAAVNELLGNVKGKCVLDAGCGDGFFSLELAQKGALVTAVDSSEAMLSIAKHKHVHDNLQYYNMDLTRELTFEDKFFDIVVANMLLMDIPEIELLIFEIARVLKKPGTFIFSITHPCFFLSDWEENENNIKTYKKIGNYLEERVEELNFWGKTLHYHRPLSRYMEAVEKAGMYVSSLREPVPPRELIELYPEQEYHCRIPSFVVIMAQMV”: the protein production result is “failed”.
